Experimental data: paper PMC8113354

Test system: FgU2AF23-His;GST-FgRbp1 (Fusarium graminearum PH-1;Fusarium graminearum PH-1)
Assay: pull-down
Conditions: scale: fold FgU2AF23-His bound vs FgU2AF23 alone

FgRPS20 exon1-intron1-exon2 RNA
binding signal: 1.6
